Assay results from paper PMC3677097, “Structural Basis of Brr2-Prp8 Interactions and Implications for U5 snRNP Biogenesis and the Spliceosome Active Site” (Structure(London, England:1993), 2013).

B1: Aar2ΔC (missing 23 C-terminal residues) (domain or fragment, yeast, UniProt P32357 1-332, looked up)
chain: MNTVPFTSAPIEVTIGIDQYSFNVKENQPFHGIKDIPIGHVHVIHFQHADNSSMRYGYWFDCRMGNFYIQYDPKDGLYKMMEERDGAKFENIVHNFKERQMMVSYPKIDEDDTWYNLTEFVQMDKIRKIVRKDENQFSYVDSSMTTVQENELLKSSLQKAGSKMEAKNEDDPAHSLNYTVINFKSREAIRPGHEMEDFLDKSYYLNTVMLQGIFKNSSNYFGELQFAFLNAMFFGNYGSSLQWHAMIELICSSATVPKHMLDKLDEILYYQIKTLPEQYSDILLNERVWNICLYSSFQKNSLHNTEKIMENKYPELLGKDNEDDALIYGISD
notes: Aar2, yeast, missing 23 C-terminal residues (so in the source)
B2: Aar2 (natural protein, yeast, UniProt P32357 1-355, looked up)
chain: MNTVPFTSAPIEVTIGIDQYSFNVKENQPFHGIKDIPIGHVHVIHFQHADNSSMRYGYWFDCRMGNFYIQYDPKDGLYKMMEERDGAKFENIVHNFKERQMMVSYPKIDEDDTWYNLTEFVQMDKIRKIVRKDENQFSYVDSSMTTVQENELLKSSLQKAGSKMEAKNEDDPAHSLNYTVINFKSREAIRPGHEMEDFLDKSYYLNTVMLQGIFKNSSNYFGELQFAFLNAMFFGNYGSSLQWHAMIELICSSATVPKHMLDKLDEILYYQIKTLPEQYSDILLNERVWNICLYSSFQKNSLHNTEKIMENKYPELLGKDNEDDALIYGISDEERDDEDDEHNPTIVGGLYYQRP
notes: Aar2, U5 snRNP assembly factor, yeast; also called U5 snRNP assembly factor Aar2

Target: Prp8^885–2413 tagged with a calmodulin-binding peptide (CBP) at the N terminus (yeast, UniProt P33334 885-2413)
Sequence (P33334 885-2413): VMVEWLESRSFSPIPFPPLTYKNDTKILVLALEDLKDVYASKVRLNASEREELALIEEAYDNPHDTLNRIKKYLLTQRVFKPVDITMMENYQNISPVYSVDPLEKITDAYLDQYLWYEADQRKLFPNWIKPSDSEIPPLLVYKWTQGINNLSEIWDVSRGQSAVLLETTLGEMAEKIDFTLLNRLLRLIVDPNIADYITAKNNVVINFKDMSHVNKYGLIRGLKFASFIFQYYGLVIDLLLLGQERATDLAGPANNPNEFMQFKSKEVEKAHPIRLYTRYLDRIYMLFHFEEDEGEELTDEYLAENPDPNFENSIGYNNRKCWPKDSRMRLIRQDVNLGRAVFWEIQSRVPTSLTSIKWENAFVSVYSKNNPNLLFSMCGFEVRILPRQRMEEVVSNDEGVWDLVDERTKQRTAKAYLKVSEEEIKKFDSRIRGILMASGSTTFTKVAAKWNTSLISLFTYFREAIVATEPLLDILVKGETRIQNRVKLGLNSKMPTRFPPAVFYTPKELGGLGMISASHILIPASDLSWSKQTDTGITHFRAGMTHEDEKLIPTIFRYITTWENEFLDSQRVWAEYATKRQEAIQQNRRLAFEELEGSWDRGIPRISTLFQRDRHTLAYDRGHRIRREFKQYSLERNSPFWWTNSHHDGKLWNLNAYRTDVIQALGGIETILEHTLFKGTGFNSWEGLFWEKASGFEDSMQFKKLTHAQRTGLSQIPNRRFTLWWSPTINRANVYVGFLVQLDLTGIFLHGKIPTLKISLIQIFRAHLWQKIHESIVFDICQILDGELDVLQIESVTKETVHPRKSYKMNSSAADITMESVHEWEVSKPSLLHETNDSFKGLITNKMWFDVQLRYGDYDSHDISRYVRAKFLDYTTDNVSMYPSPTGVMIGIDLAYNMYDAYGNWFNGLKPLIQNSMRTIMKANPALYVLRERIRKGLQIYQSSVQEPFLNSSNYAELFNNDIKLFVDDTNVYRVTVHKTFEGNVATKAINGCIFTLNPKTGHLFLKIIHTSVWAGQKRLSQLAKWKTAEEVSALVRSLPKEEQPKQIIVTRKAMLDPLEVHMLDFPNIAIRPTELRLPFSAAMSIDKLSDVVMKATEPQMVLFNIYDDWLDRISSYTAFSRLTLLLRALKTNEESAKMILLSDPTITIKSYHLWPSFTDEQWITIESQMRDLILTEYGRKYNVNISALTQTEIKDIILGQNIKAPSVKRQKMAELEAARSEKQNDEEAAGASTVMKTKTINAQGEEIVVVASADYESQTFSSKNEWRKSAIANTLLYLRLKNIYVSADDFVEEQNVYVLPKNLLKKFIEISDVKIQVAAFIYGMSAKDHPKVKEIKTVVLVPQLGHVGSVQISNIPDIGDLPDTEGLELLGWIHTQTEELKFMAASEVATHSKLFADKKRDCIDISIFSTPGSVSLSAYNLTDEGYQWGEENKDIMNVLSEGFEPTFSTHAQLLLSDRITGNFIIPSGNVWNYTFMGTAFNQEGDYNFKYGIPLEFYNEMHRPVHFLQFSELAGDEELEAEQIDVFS
Assay: pull-down; calmodulin pull-down; CBP-tagged Prp8^885-2413 or its complexes as bait (0.5 μM), prey 1.0 μM; overnight at 4°C in 20 mM HEPES K+ pH 7.8, 300 mM KCl, 1 mM Mg(OAc)2, 2 mM CaCl2, 10 mM β-mercaptoethanol; calmodulin resin 3 hr, eluted with EGTA; SDS-PAGE
Settings: both partners purified

| Binder | binding result |
| --- | --- |
| B1 | binds |
| B2 | binds |
